In publication PMC8292405, “Functional expression of the eukaryotic proton pump rhodopsin OmR2 in Escherichia coli and its photochemical characterization” (Scientific Reports, 2021):

What was measured:
[1] = target: T1, OmR2 (O. marina rhodopsin-2) (Oxyrrhis marina, UniProt A0A0B4P477); assay: absorption spectroscopy; HPLC of retinal oximes; format: binding; conditions: covalent; protonated Schiff base (Lys213); 50 mM Tris-HCl pH 7.0, 1 M NaCl, 0.05% DDM
T1 construct: full-length, codon-optimized synthetic gene, C-terminal His6 tag kept; expressed in E. coli BL21(DE3) (pET21a) and in HEK293T; purified in DDM micelles

Asp81 = Asp81 (UniProt position 81, YARYIDWVLTT); conditions: not stated (counterion of the protonated Schiff base); cited from earlier work
Asp95 [2] = target: Asp95 (UniProt position 95, YARYADWLFTT); conditions: not stated (counterion of the protonated Schiff base); cited from earlier work
Asp85 = Asp85 (UniProt position 98, WARYADWLFTT); conditions: not stated (counterion of the protonated Schiff base); cited from earlier work
Asp100 = conditions: not stated (counterion of the protonated Schiff base); cited from earlier work
Asp88 = assay: UV-vis; conditions: room temperature (approx. 25 °C), 1 M NaCl, Buffer A: 50 mM Tris-HCl, 0.05% (w/v) DDM, pH adjusted by adding HCl, Unphotolysed state under room light, all-trans retinal bound with protonated Schiff base, folded (reversibility of the spectral changes was checked)
Asp97 = Asp97 (UniProt position 97, VFRYIDWLLTV); conditions: not stated (counterion of the protonated Schiff base); cited from earlier work
Asp95 [3] = target: Asp95 (UniProt position 95, FYRYADWLLTV); conditions: not stated (counterion of the protonated Schiff base); cited from earlier work

T1 sequence (A0A0B4P477 entry or part of it): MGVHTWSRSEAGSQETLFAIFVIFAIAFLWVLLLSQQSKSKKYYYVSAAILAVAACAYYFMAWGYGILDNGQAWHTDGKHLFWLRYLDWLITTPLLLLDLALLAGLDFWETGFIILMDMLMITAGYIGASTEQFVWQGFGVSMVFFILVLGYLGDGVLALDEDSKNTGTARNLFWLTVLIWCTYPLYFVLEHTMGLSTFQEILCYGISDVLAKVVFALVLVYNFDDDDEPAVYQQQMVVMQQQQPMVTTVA

## CC1=C(/C=C/C(C)=C/C=C/C(C)=C/C=O)C(C)(C)CCC1 [all-trans retinal]
[1]
  absorption spectroscopy; HPLC of retinal oximes: This indicates that OmR2 possesses all-trans retinal regardless of the light environment

## Acetabularia rhodopsin II (ARII) (Acetabularia acetabulum)
Asp81
  pKa: 2.6

## Archaerhodopsin-3 (AR3) (Halorubrum sodomense)
Asp95 [2]
  pKa: 3.1

## Bacteriorhodopsin (BR) (Halobacterium salinarum)
Asp85
  pKa: 2.6

## Oxyrrhis marina rhodopsin-1 (OmR1, OR1) (Oxyrrhis marina)
Asp100
  pKa: 4

## Oxyrrhis marina rhodopsin-2 (OmR2) (Oxyrrhis marina)
Asp88
  pKa: 3.0 ± 0.04

## Proteorhodopsin (PR, green-absorbing) (uncultured marine gamma-proteobacterium (EBAC31A08))
Asp97
  pKa: 7.5

## Thermophilic rhodopsin (TR) (Thermus thermophilus)
Asp95 [3]
  pKa: 3.4
